The results in this text go back to patent US20260265385A1 (ANAPTYSBIO, published 2026).

The target in assay [1] is T1, recombinant human IL-2Rβ (extracellular domain, Ala1-Thr215) (human, UniProt P14784 27-240).
T1 construct: extracellular domain; Analyte in SPR; Ala1-Thr215 is counted on the mature protein; also called human LL-2Rβ; Human IL-2RB
T1 sequence (looked up): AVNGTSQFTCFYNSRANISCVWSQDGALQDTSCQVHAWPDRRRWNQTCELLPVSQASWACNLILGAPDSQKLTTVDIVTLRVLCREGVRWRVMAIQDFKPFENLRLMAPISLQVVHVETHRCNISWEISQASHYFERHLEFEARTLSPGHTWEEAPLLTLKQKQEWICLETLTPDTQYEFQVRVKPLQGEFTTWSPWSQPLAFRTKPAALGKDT
The experiment in a line: SPR, antibody captured on Protein A chip. The method, then:
(§1) Surface plasmon resonance (SPR) was used to determine the binding affinities. The M6-1625 and M10-1275 antibodies were captured onto a Cytiva Protein A Chip for 60 seconds at 0.5 μg/mL for 60 seconds. The antibodies were exposed to recombinant human LL-2Rβ or cynomolgus LL-2Rβ (corresponding to residues Ala1-Thr215 of the extracellular domains excluding the signal peptide) at typical concentrations ranging from 0.4 nM to 11 nM with typical 300 second associations and 1200 second dissociations using a BiacoreS200 instrument. Sensorgrams were fit globally using a 1:1 binding model in the Biacore T200 Evaluation Software to calculate on- and off-rates and KD values.

For assay [2], the target named is T2, recombinant cynomolgus IL-2Rβ (extracellular domain, Ala1-Thr215) (cynomolgus, UniProt Q38J85 27-240).
T2 construct: extracellular domain; Analyte in SPR; also called cynomolgus LL-2Rβ; Cyno IL-2RB
T2 sequence (looked up): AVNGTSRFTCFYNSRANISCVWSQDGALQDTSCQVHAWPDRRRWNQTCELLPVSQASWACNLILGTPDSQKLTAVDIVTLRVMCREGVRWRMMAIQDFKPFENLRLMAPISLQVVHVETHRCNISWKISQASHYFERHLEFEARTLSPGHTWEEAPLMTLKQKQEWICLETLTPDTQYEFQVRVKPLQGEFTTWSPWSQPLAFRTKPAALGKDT
The experiment in a line: SPR, antibody captured on Protein A chip. The procedure:
as §1
(In general: SPR reads the build-up and loss of mass on a sensor chip optically.)

B1: APE15279 (antibody, V domains shown)
VH: QVQLVQSGAEVKKPGASVKVSCKASGYTFTSQWIEWVRQAPGQGLEWMGEILPGSGSINHNEKFQGRVTMTRDTSTSTVYMELSSLRSEDTAVYYCTRHYGSFDYWGQGTTVTVSS
VL: DIQMTQSPSSLSASVGDRVTITCKASQNVGTDVAWYQQKPGKAPKSLIYSASYRYSGVPSRFSGSGSGTDFTLTISSLQPEDFATYFCHQYESYPFTFGQGTKLEIKR
notes: M6-p1625 series
As a reminder, the Kd is the free concentration of one partner at which half of the binding sites on the other are occupied at equilibrium, for simple one-to-one binding. With B1, the Kd in assay [1] was 0.522 nM; in assay [2], 0.533 nM.

B2: APE15293 (antibody, V domains shown)
VH: QVQLVQSGAEVKKPGASVKVSCKASGYTFSSHWIQWVRQAPGQGLEWMGEILPGSGSINHNEKFQGRVTMTRDTSTSTVYMELSSLRSEDTAVYYCTRHYGSFDYWGQGTTVTVSS
VL: DIQMTQSPSSLSASVGDRVTITCKASQNVGTDVAWYQQKPGKAPKSLIYSASYRYSGVPSRFSGSGSGTDFTLTISSLQPEDFATYFCHQYESYPFTFGQGTKLEIKR
notes: M6-p1625 series
For the molecule B2, the results for the Kd in assay [1] and in assay [2] were 0.351 nM and 0.359 nM, respectively.

B3: APE15290 (antibody, V domains shown)
VH: QVQLVQSGAEVKKPGASVKVSCKASGYPFTSYWIQWVRQAPGQGLEWMGEILPGSGSINHNEKFQGRVTMTRDTSTSTVYMELSSLRSEDTAVYYCTRHYGSFDYWGQGTTVTVSS
VL: DIQMTQSPSSLSASVGDRVTITCKASQNVGTDVAWYQQKPGKAPKSLIYSASYRYSGVPSRFSGSGSGTDFTLTISSLQPEDFATYFCHQYESYPFTFGQGTKLEIKR
notes: M6-p1625 series
Turning to B3, the Kd in assay [1] is 0.261 nM; in assay [2] it was 0.305 nM.

B4: APE15297 (antibody, V domains shown)
VH: QVQLVQSGAEVKKPGASVKVSCKASGYSFIIHWIQWVRQAPGQGLEWMGEILPGSGSINHNEKFQGRVTMTRDTSTSTVYMELSSLRSEDTAVYYCTRHYGSFDYWGQGTTVTVSS
VL: DIQMTQSPSSLSASVGDRVTITCKASQNVGTDVAWYQQKPGKAPKSLIYSASYRYSGVPSRFSGSGSGTDFTLTISSLQPEDFATYFCHQYESYPFTFGQGTKLEIKR
notes: M6-p1625 series
With B4, the Kd in assay [1] amounted to 0.157 nM; in assay [2] it was 0.153 nM.

B5: APE15291 (antibody, V domains shown)
VH: QVQLVQSGAEVKKPGASVKVSCKASGYTFARHWIGWVRQAPGQGLEWMGEILPGSGSINHNEKFQGRVTMTRDTSTSTVYMELSSLRSEDTAVYYCTRHYGSFDYWGQGTTVTVSS
VL: DIQMTQSPSSLSASVGDRVTITCKASQNVGTDVAWYQQKPGKAPKSLIYSASYRYSGVPSRFSGSGSGTDFTLTISSLQPEDFATYFCHQYESYPFTFGQGTKLEIKR
notes: M6-p1625 series
As for B5, the figures for the Kd in assay [1] and in assay [2] were 1.98 nM and 2.68 nM, respectively.

B6: APE15285 (antibody, V domains shown)
VH: QVQLVQSGAEVKKPGASVKVSCKASGYIFASNWIQWVRQAPGQGLEWMGEILPGSGSINHNEKFQGRVTMTRDTSTSTVYMELSSLRSEDTAVYYCTRHYGSFDYWGQGTTVTVSS
VL: DIQMTQSPSSLSASVGDRVTITCKASQNVGTDVAWYQQKPGKAPKSLIYSASYRYSGVPSRFSGSGSGTDFTLTISSLQPEDFATYFCHQYESYPFTFGQGTKLEIKR
notes: M6-p1625 series
B6: the figures for the dissociation constant Kd in assay [1] and in assay [2] were 0.31 nM and 0.327 nM, respectively.

B7: APE15287 (antibody, V domains shown)
VH: QVQLVQSGAEVKKPGASVKVSCKASGYKFSRYWIQWVRQAPGQGLEWMGEILPGSGSINHNEKFQGRVTMTRDTSTSTVYMELSSLRSEDTAVYYCTRHYGSFDYWGQGTTVTVSS
VL: DIQMTQSPSSLSASVGDRVTITCKASQNVGTDVAWYQQKPGKAPKSLIYSASYRYSGVPSRFSGSGSGTDFTLTISSLQPEDFATYFCHQYESYPFTFGQGTKLEIKR
notes: M6-p1625 series
In the case of B7, the results for the Kd in assay [1] and in assay [2] were 0.169 nM and 0.186 nM, respectively.

B8: APE15299 (antibody, V domains shown)
VH: QVQLVQSGAEVKKPGASVKVSCKASGYSFSKHWIQWVRQAPGQGLEWMGEILPGSGSINHNEKFQGRVTMTRDTSTSTVYMELSSLRSEDTAVYYCTRHYGSFDYWGQGTTVTVSS
VL: DIQMTQSPSSLSASVGDRVTITCKASQNVGTDVAWYQQKPGKAPKSLIYSASYRYSGVPSRFSGSGSGTDFTLTISSLQPEDFATYFCHQYESYPFTFGQGTKLEIKR
notes: M6-p1625 series
For the molecule B8, the Kd turned out to be 0.348 nM in assay [1] and 0.39 nM in assay [2].

B9: APE15300 (antibody, V domains shown)
VH: QVQLVQSGAEVKKPGASVKVSCKASGYAFVDNWIQWVRQAPGQGLEWMGEILPGSGSINHNEKFQGRVTMTRDTSTSTVYMELSSLRSEDTAVYYCTRHYGSFDYWGQGTTVTVSS
VL: DIQMTQSPSSLSASVGDRVTITCKASQNVGTDVAWYQQKPGKAPKSLIYSASYRYSGVPSRFSGSGSGTDFTLTISSLQPEDFATYFCHQYESYPFTFGQGTKLEIKR
notes: M6-p1625 series
With B9, the figures for the Kd in assay [1] and in assay [2] were 1.41 nM and 1.16 nM, respectively.

B10: APE15283 (antibody, V domains shown)
VH: QVQLVQSGAEVKKPGASVKVSCKASGYKFSSYWIQWVRQAPGQGLEWMGEILPGSGSINHNEKFQGRVTMTRDTSTSTVYMELSSLRSEDTAVYYCTRHYGSFDYWGQGTTVTVSS
VL: DIQMTQSPSSLSASVGDRVTITCKASQNVGTDVAWYQQKPGKAPKSLIYSASYRYSGVPSRFSGSGSGTDFTLTISSLQPEDFATYFCHQYESYPFTFGQGTKLEIKR
notes: M6-p1625 series
As for B10, the values for the Kd in assay [1] and in assay [2] were 0.312 nM and 0.318 nM, respectively.

B11: APE15296 (antibody, V domains shown)
VH: QVQLVQSGAEVKKPGASVKVSCKASGYRFSTQWIEWVRQAPGQGLEWMGEILPGSGSINHNEKFQGRVTMTRDTSTSTVYMELSSLRSEDTAVYYCTRHYGSFDYWGQGTTVTVSS
VL: DIQMTQSPSSLSASVGDRVTITCKASQNVGTDVAWYQQKPGKAPKSLIYSASYRYSGVPSRFSGSGSGTDFTLTISSLQPEDFATYFCHQYESYPFTFGQGTKLEIKR
notes: M6-p1625 series
For B11, the dissociation constant (Kd) is 0.851 nM in assay [1] and 0.825 nM in assay [2].

B12: APE15288 (antibody, V domains shown)
VH: QVQLVQSGAEVKKPGASVKVSCKASGYSFRRHWIQWVRQAPGQGLEWMGEILPGSGSINHNEKFQGRVTMTRDTSTSTVYMELSSLRSEDTAVYYCTRHYGSFDYWGQGTTVTVSS
VL: DIQMTQSPSSLSASVGDRVTITCKASQNVGTDVAWYQQKPGKAPKSLIYSASYRYSGVPSRFSGSGSGTDFTLTISSLQPEDFATYFCHQYESYPFTFGQGTKLEIKR
notes: M6-p1625 series
In the case of B12, the Kd was 0.172 nM in assay [1] and 0.199 nM in assay [2].

B13: APE15280 (antibody, V domains shown)
VH: QVQLVQSGAEVKKPGASVKVSCKASGYTFSRQWIEWVRQAPGQGLEWMGEILPGSGSINHNEKFQGRVTMTRDTSTSTVYMELSSLRSEDTAVYYCTRHYGSFDYWGQGTTVTVSS
VL: DIQMTQSPSSLSASVGDRVTITCKASQNVGTDVAWYQQKPGKAPKSLIYSASYRYSGVPSRFSGSGSGTDFTLTISSLQPEDFATYFCHQYESYPFTFGQGTKLEIKR
notes: M6-p1625 series
Consider B13, for which the Kd turned out to be 0.161 nM in assay [1] and 0.202 nM in assay [2].

B14: APE15284 (antibody, V domains shown)
VH: QVQLVQSGAEVKKPGASVKVSCKASGYTFGRYWIQWVRQAPGQGLEWMGEILPGSGSINHNEKFQGRVTMTRDTSTSTVYMELSSLRSEDTAVYYCTRHYGSFDYWGQGTTVTVSS
VL: DIQMTQSPSSLSASVGDRVTITCKASQNVGTDVAWYQQKPGKAPKSLIYSASYRYSGVPSRFSGSGSGTDFTLTISSLQPEDFATYFCHQYESYPFTFGQGTKLEIKR
notes: M6-p1625 series
As to B14, the figures for the Kd in assay [1] and in assay [2] were 0.0566 nM and 0.0705 nM, respectively.

B15: APE15292 (antibody, V domains shown)
VH: QVQLVQSGAEVKKPGASVKVSCKASGYTFITYWIEWVRQAPGQGLEWMGEILPGSGSINHNEKFQGRVTMTRDTSTSTVYMELSSLRSEDTAVYYCTRHYGSFDYWGQGTTVTVSS
VL: DIQMTQSPSSLSASVGDRVTITCKASQNVGTDVAWYQQKPGKAPKSLIYSASYRYSGVPSRFSGSGSGTDFTLTISSLQPEDFATYFCHQYESYPFTFGQGTKLEIKR
notes: M6-p1625 series
B15: the Kd in assay [1] was found to be 0.376 nM; in assay [2], 0.437 nM.

B16: APE15286 (antibody, V domains shown)
VH: QVQLVQSGAEVKKPGASVKVSCKASGYLFSRYWIQWVRQAPGQGLEWMGEILPGSGSINHNEKFQGRVTMTRDTSTSTVYMELSSLRSEDTAVYYCTRHYGSFDYWGQGTTVTVSS
VL: DIQMTQSPSSLSASVGDRVTITCKASQNVGTDVAWYQQKPGKAPKSLIYSASYRYSGVPSRFSGSGSGTDFTLTISSLQPEDFATYFCHQYESYPFTFGQGTKLEIKR
notes: M6-p1625 series
As to B16, the figures for the Kd in assay [1] and in assay [2] were 0.0873 nM and 0.104 nM, respectively.

B17: APE15298 (antibody, V domains shown)
VH: QVQLVQSGAEVKKPGASVKVSCKASGYIFSRYWIQWVRQAPGQGLEWMGEILPGSVSINHNEKFQGRVTMTRDTSTSTVYMELSSLRSEDTAVYYCTRHYGSFDYWGQGTTVTVSS
VL: DIQMTQSPSSLSASVGDRVTITCKASQNVGTDVAWYQQKPGKAPKSLIYSASYRYSGVPSRFSGSGSGTDFTLTISSLQPEDFATYFCHQYESYPFTFGQGTKLEIKR
notes: M6-p1625 series
Regarding B17, the Kd in assay [1] is 0.0981 nM; in assay [2], 0.132 nM.
